Assay results from US11702475B2, “Cysteine engineered fibronectin type III domain binding molecules” (Janssen Biotech, Inc., priority 2013, dated 2023).
Residue numbers refer to the chain shown, from its start. In names and notes the source's numbering stands.

Columns and labels:
[1] = Thermal stability of cysteine-NEM conjugates by DSC; assay type: physicochemical
How it was run: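 Cysteine-NEM conjugates heated from 25 °C to 100 °C at 1 °C/min by DSC, with a repeat scan to check reversibility of unfolding. Melting temperature derived by fitting to a 2-state unfolding model.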

[2] = Analytical size exclusion chromatography (percent monomer); assay type: physicochemical; details: NEM-conjugated cysteine variants; SEC, Abs280 monomer region 5.5-6 minutes vs oligomer region 4-5.3 minutes
How it was run: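 Purified FN3 domains were run on a Superdex 75 5/150 column in PBS pH 7.4 at 0.3 mL/min with A280 detection. Percent monomer came from integrating the monomer peak (5.5–6 min) against oligomer peaks (4–5.3 min).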

[3] = test system: EGFR-overexpressing human tumor cell line H1573; assay: Cytotoxicity assay in H1573 cells; assay type: cell-based; details: cysteine variants conjugated to VC-MMAF, Cell TiterGlo at 70 hours, read-out: IC50
How it was run: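 Cysteine-variant proteins conjugated to an auristatin tubulin inhibitor via non-cleavable PEG4 or cleavable Val-Cit/Val-Lys linkers were added to attached cells in phenol red-free RPMI with 5% FBS. Viability was read by CellTiter-Glo at 70 h. IC50 came from sigmoidal variable-slope fits.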

H292 cells = assay: Inhibition of proliferation of H292 cells (HGF-induced); assay type: cell-based, human
Description: Inhibition of tumor cell proliferation can be measured using standard methods and methods described herein.
It was verified that the enhanced potency for inhibition of EGFR and c-Met phosphorylation with the bispecific EGFR/c-Met molecules translated into an enhanced inhibition of signaling and proliferation. […] The proliferation assay was completed using different combinations EGFR and c-Met binding FN3 domains either as a mixture or linked in a bispecific format. […] This confirmed that the avidity effect observed at the level of the receptors (FIG. 6 and FIG. 7) translates into an improvement in inhibiting cell signaling (Table 17) and cell proliferation (Table 18).
Select EGFR/c-Met molecules were characterized for their affinity to both EGFR and c-Met, their ability to inhibit EGFR and c-Met autophosphorylation, and their effect on proliferation of HGF cells. Binding affinity of the bispecific EGFR/c-Met molecules to recombinant EGFR and/or c-Met extracellular domain was further by surface Plasmon resonance methods using a Proteon Instrument (BioRad) according to protocol described in Example 3.

[4] = Differential scanning calorimetry in PBS of FN3 domains; assay type: physicochemical; details: DSC in PBS; for Tm: EGFR-binding FN3 domains and stabilised mutants; for Thermal Stability (Tm): c-Met-binding FN3 domains
Description: A subset of the EGFR binding FN3 domains was engineered to increase the conformational stability of each molecule. The mutations L17A, N46V, and E86I (described in US Pat. Publ. No. 2011/0274623) were incorporated into clones P54AR4-83, P54CR4-31, and P54AR4-37 by DNA synthesis. […] Differential scanning calorimetry in PBS was used to assess the stability of each mutant in order to compare it to that of the corresponding parent molecule.
Thermal Stability of c-Met-Binding FN3 Domains Differential scanning calorimetry in PBS was used to assess the stability of each FN3 domain.

B1: I91C: cysteine variant of P54AR4-83v2 (SEQ ID NOS: 215 and 253); NEM and VC-MMAF conjugates (conjugate)
chain: MLPAPKNLVVSEVTEDSARLSWDDPWAFYESFLIQYQESEKVGEAIVLTVPGSERSYDLTGLKPGTEYTVSIYGVHNVYKDTNMRGLPLSACFTT
modifications: NEM or vcMMAF conjugate; EGFR binding FN3 domain
notes: NEM and VC-MMAF conjugates
First Scan Tm ([1]; DSC 25-100 °C, 1 °C per minute): 70 °C | Second Scan Tm ([1]; second identical scan): 69 °C | Percent monomer [2]: 100% | IC50 [3]: 0.54 nM

B2: ECB15: bispecific SEQ ID 57: P54AR4-83V2, (AP)5, P114AR7P94-A3 (protein)
chain: MLPAPKNLVVSEVTEDSARLSWDDPWAFYESFLIQYQESEKVGEAIVLTVPGSERSYDLTGLKPGTEYTVSIYGVHNVYKDTNMRGLPLSAIFTTAPAPAPAPAPLPAPKNLVVSRVTEDSARLSWTAPDAAFDSFWIRYFEFLGSGEAIVLTVPGSERSYDLTGLKPGTEYVVNIMGVKGGKISPPLSAIFTT
modifications: bispecific EGFR/cMet binding molecule
IC50 (H292 cells): 23 nM

B3: ECB106: bispecific SEQ ID 65: P54AR4-83V23, (AP)5, P114AR7P94-A3v22 (protein)
chain: B2 chain with W26H, M84I, M177L
modifications: bispecific EGFR/cMet binding molecule
IC50 (H292 cells): 484 nM

B4: ECB95: bispecific SEQ ID 62: P54AR4-83V22, (AP)5, P114AR9P121-A6v2 (protein)
chain: B2 chain with M84I, L144V, M177L, K183S
modifications: bispecific EGFR/cMet binding molecule
IC50 (H292 cells): 383 nM

B5: ECB97: bispecific SEQ ID 64: P54AR4-83V22, (AP)5, P114AR7P95-C5V2 (protein)
chain: B2 chain with M84I, M177L, G178S, K183S
modifications: bispecific EGFR/cMet binding molecule
IC50 (H292 cells): 31 nM

B6: ECB96: bispecific SEQ ID 63: P54AR4-83V22, (AP)5, P114AR9P122-A7v2 (protein)
chain: B2 chain with M84I, L144V, G145S, S146K, E148D, M177L, K183S
modifications: bispecific EGFR/cMet binding molecule
IC50 (H292 cells): 9480 nM

B7: ECB94: bispecific SEQ ID 61: P54AR4-83V22, (AP)5, P114AR7P94-A3v22 (protein)
chain: B2 chain with M84I, M177L
modifications: bispecific EGFR/cMet binding molecule
IC50 (H292 cells): 29.6 nM

B8: P54CR4-31: EGFR-binding FN3 domain, SEQ ID NO: 26 (protein)
chain: LPAPKNLVVSEVTEDSLRLSWTAPDAAFDSFLIQYQESEKVGEAINLTVPGSERSYDLTGLKPGTEYTVSIYGVLGSYVFEHDVMLPLSAEFTT
modifications: EGFR binding FN3 domain
Tm [4]: 60.9 °C

B9: P54CR4-31v2: P54CR4-31 with mutations L17A, N46V, E86I; SEQ ID NO: 28 (protein)
chain: B8 chain with L17A, N46V, E91I
modifications: EGFR binding FN3 domain
Tm [4]: 78.9 °C

B10: P114AR7P92-G8: c-Met-binding FN3 domain, SEQ ID NO: 36 (protein)
chain: LPAPKNLVVSRVTEDSARLSWTAPDAAFDSFVIRYFEFLGSGEAIVLTVPGSERSYDLTGLKPGTEYVVQILGVKGGYISIPLSAIFTT
modifications: c-Met binding FN3 domain
Thermal Stability (Tm) [4]: 90.9 C.

B11: P114AR7P94-E5: c-Met-binding FN3 domain, SEQ ID NO: 42 (protein)
chain: B10 chain with V32W, V68A, Q70N, L72M, Y78R, I79V, I81V
modifications: c-Met binding FN3 domain
Thermal Stability (Tm) [4]: 80 C.

B12: P114AR7P93-H9: c-Met-binding FN3 domain, SEQ ID NO: 40 (protein)
chain: B10 chain with V32W, L72I, Y78H, I81L
modifications: c-Met binding FN3 domain
Thermal Stability (Tm) [4]: 88.2 C.

B13: P114AR7P95-D4: c-Met-binding FN3 domain, SEQ ID NO: 45 (protein)
chain: B10 chain with V32W
modifications: c-Met binding FN3 domain
Thermal Stability (Tm) [4]: 85.3 C.

B14: P114AR7P95-F10: c-Met-binding FN3 domain, SEQ ID NO: 47 (protein)
chain: B10 chain with V32W, L39T, G40T, S41A, Q70N, L72M, Y78S, I81P
modifications: c-Met binding FN3 domain
Thermal Stability (Tm) [4]: 85.2 C.

B15: P114AR7P95-H8: c-Met-binding FN3 domain, SEQ ID NO: 49 (protein)
chain: B10 chain with V32W, L39V, G40S, S41K, Q70N, L72M, Y78S, I81P
modifications: c-Met binding FN3 domain
Thermal Stability (Tm) [4]: 83 C.

B16: P114AR7P94-A3: c-Met-binding FN3 domain, SEQ ID NO: 41 (protein)
chain: B10 chain with V32W, Q70N, L72M, Y78K, I81P
modifications: c-Met binding FN3 domain
Thermal Stability (Tm) [4]: 86.2 C.

B17: P114AR7P93-G8: c-Met-binding FN3 domain, SEQ ID NO: 39 (protein)
chain: B10 chain with V32W, G60D, V68G, Q70T, L72N, Y78R, I79V, I81T
modifications: c-Met binding FN3 domain
Thermal Stability (Tm) [4]: 76.8 C.

B18: P114AR7P92-F6: c-Met-binding FN3 domain, SEQ ID NO: 35 (protein)
chain: B10 chain with V32W, Q70N, Y78G, I79L, I81V
modifications: c-Met binding FN3 domain
Thermal Stability (Tm) [4]: 76.8 C.

B19: P114AR7P95-G7: c-Met-binding FN3 domain, SEQ ID NO: 48 (protein)
chain: B10 chain with V32W, F38L, G40S, S41T, Q70N, L72M, Y78S, I81P
modifications: c-Met binding FN3 domain
Thermal Stability (Tm) [4]: 87.2 C.

B20: P114AR5P74-A5: c-Met-binding FN3 domain, SEQ ID NO: 32 (protein)
chain: B10 chain with V32W, F36D, F38V, L39V, G40V, S41G, V68Y, Q70N, Y78S, I81V
modifications: c-Met binding FN3 domain
Thermal Stability (Tm) [4]: 74.1 C.

B21: P114AR7P92-H5: c-Met-binding FN3 domain, SEQ ID NO: 37 (protein)
chain: B10 chain with V32W, F36L, G40L, S41G, L72M, Y78T, I79V, I81P
modifications: c-Met binding FN3 domain
Thermal Stability (Tm) [4]: 87 C.

B22: P54AR4-83: EGFR-binding FN3 domain, SEQ ID NO: 25 (protein)
chain: LPAPKNLVVSEVTEDSLRLSWDDPWAFYESFLIQYQESEKVGEAINLTVPGSERSYDLTGLKPGTEYTVSIYGVHNVYKDTNMRGLPLSAEFTT
modifications: EGFR binding FN3 domain
Tm [4]: 50.6 °C

B23: P54AR4-37: EGFR-binding FN3 domain, printed SEQ ID NO: 22 (that of P54AR4-73) (protein)
chain: B22 chain with D22T, D23W, W25Y, F27D, Y28L, E29D
modifications: left off: small tags and cut ends
Tm [4]: 45.9 °C

B24: P54AR4-37v2: P54AR4-37 with mutations L17A, N46V, E86I; SEQ ID NO: 29 (protein)
chain: B22 chain with D22T, D23W, W25Y, F27D, Y28L, E29D
modifications: EGFR binding FN3 domain
Tm [4]: 64.2 °C
